# Reference: article PMC3816987 (Journal of molecular recognition : JMR, 2010)
# T1: GST-free tubby-N (tubby N-terminus, 1M-242P) (mouse, UniProt P50586 1-242)
# T1 sequence (looked up): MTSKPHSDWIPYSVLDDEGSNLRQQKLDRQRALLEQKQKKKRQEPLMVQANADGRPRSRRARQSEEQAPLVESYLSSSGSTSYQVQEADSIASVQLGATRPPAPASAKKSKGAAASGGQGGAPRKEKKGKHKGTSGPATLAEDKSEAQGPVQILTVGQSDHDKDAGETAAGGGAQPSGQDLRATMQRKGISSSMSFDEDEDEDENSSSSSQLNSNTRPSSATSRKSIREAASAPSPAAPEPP
# T2: GST fusion protein of Tulp1-N (1M-298Q) (mouse, UniProt Q9Z273 1-298)
# T2 sequence (looked up): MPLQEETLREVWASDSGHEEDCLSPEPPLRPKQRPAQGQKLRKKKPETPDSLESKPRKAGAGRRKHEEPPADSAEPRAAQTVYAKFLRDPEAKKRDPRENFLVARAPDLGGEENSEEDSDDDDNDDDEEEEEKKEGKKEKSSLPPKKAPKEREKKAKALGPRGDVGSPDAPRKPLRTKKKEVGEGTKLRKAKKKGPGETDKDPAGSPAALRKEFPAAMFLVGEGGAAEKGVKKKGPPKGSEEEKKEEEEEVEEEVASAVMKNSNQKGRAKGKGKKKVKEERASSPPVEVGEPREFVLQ
# B1: CCCTC-binding factor (Ctcf) phage clone, 136G-400T (domain or fragment, mouse, UniProt Q61164 136-400, looked up)
# chain: GAYENEVSKEGLAESEPMICHTLPLPEGFQVVKVGANGEVETLEQGELPPQEDSSWQKDPDYQPPAKKTKKTKKSKLRYTEEGKDVDVSVYDFEEEQQEGLLSEVNAEKVVGNMKPPKPTKIKKKGVKKTFQCELCSYTCPRRSNLDRHMKSHTDERPHKCHLCGRAFRTVTLLRNHLNTHTGTRPHKCPDCDMAFVTSGELVRHRRYKHTHEKPFKCSMCDYASVEVSKLKRHIRSHTGERPFQCSLCSYASRDTYKLKRHMRT
# modifications: biotin on the C-terminal biotinylation tag (E. coli BirA ligase)
# B2: Hmg. nucleosomal binding domain 2 (Hmgn2) phage clone, 1M-56K (domain or fragment)
# chain: not shown
# modifications: biotin on the C-terminal biotinylation tag (E. coli BirA ligase)
# B3: IQ motif containing GTPase activating protein 2 (Iqgap2) phage clone, 1232E-1368E (domain or fragment, mouse, UniProt Q3UQ44 1232-1368, looked up)
# chain: EKSDLLNELLESLGEVPTVESFLGEGAVDPNDPNKENTLNQLSKTEISLSLTSKYDVKDGEAVDGRSLMIKTKKLIIDVTRNQPGSTLTEILETPATGQQELEHAKDMESRAVVDSRTPEEGKQSQAVIEDARLPLE
# modifications: biotin on the C-terminal biotinylation tag (E. coli BirA ligase)
# B4: Tubby like protein 1 (Tulp1) phage clone, 125D-243E (domain or fragment, mouse, UniProt Q9Z273 125-243, looked up)
# chain: DDDEEEEEKKEGKKEKSSLPPKKAPKEREKKAKALGPRGDVGSPDAPRKPLRTKKKEVGEGTKLRKAKKKGPGETDKDPAGSPAALRKEFPAAMFLVGEGGAAEKGVKKKGPPKGSEEE
# modifications: biotin on the C-terminal biotinylation tag (E. coli BirA ligase)
# B5: Regulated endocrine-specific protein 18 (Resp18) phage clone, 68V-134K (domain or fragment, mouse, UniProt P47939-1 68-134, looked up)
# chain: VPEGMFWADDIAYELMTKKVEHLSRLHPQYPCRKDMKAVSPTANAGVRSKQEEKLQLLSPQKSPTVK-{biotinylation tag(biotin)}
# Target: T1, GST-free tubby-N (tubby N-terminus, …)
# Test: phage binding assay
row,Binder,"binding specificity, clonal phage vs. control phage"
1,B1,~117 X
2,B2,~33.4 X
3,B3,~53.2 X
4,B4,~49 X
5,B5,~10.3 X

# Target: T2, GST fusion protein of Tulp1-N (1M-298Q)
# Test: phage binding assay
row,Binder,"binding specificity, clonal phage vs. control phage"
1,B1,~7.7 X
2,B2,~37.8 X
3,B4,~32.8 X
